These results are taken from patent US8124742.

First the molecules themselves.
T1: human Rh(D) antigen on Rh(D)-positive red blood cells (human, UniProt Q02161 2-417)
T1 construct: whole, on cells; also called wt; wild type Rh(D)
T1 sequence (looked up): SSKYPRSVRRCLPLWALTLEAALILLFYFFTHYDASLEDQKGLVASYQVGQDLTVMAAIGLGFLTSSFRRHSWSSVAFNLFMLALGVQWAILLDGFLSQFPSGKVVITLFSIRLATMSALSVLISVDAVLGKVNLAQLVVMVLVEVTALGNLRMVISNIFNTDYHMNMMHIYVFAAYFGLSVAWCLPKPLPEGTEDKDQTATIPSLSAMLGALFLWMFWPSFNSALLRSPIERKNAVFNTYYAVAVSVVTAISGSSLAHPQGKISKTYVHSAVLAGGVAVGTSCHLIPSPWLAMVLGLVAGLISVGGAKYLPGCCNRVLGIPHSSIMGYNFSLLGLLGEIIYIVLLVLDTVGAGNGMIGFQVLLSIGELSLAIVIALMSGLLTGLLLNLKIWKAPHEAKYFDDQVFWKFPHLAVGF

B1: SH24 (Fab, V domains shown)
VH: EVQLLESGGGVAQPGRSLRLSCVASGFSLRSYGMHWVRQAPGKGLEWVADIWFDGSNKDYADSVKGRFTISRDNSKNTLYLQMNSLRAEDTAVYYCARDWRVRAFSSGWLSAFDIWGQGTMVTVSS
VL: AELTQSPSSLSASVGDRVTITCRASQSISTYLNWYQQRPGKAPNLLIYAASTLQRGVPSRFTGSGSGTDFTLTISSLQPEDFATYYCQQSYTTLWTFGQGTKMEIRR
notes: Fab on M13 phage
B2: SH18 (Fab, V domains shown)
VH: EVQLLESGGGVVQPGRSLRLSCAASGFTFRSYAMHWVRQAPGKGLEWVAATAYDGKNKYYADSVKGRFTISRDNSMNTLFLQMNSLRAEDTAVFYCARGGFYYDSSGYYGLRHYFDSWGQGTLVTVSS
VL: AELTQSPSSLSASVGDRVTITCRASQSISIALNWYQQRPGKAPKLLMYATSTLQSGVPSRFSGSGSGTDFTLTISSLQPEDFATYYCQQYYNKPTFGPGTKVDIKR
notes: Fab on M13 phage
B3: SH26 (Fab, V domains shown)
VH: EVQLLESGGGVVQPGRSLRLSCVVSGFTFNNYGMHWVRQAPGKGLEWVAVIWFDGSNKYYADSVKGRFTISRDNSKNTLYLQMNSLRAEDTAVYYCARENQIKLWSRYLYYFDYWGQGTLVTVSS
VL: AELTQSPSSLSASVGDRVTITCRASQSISSYLNWYQQKPGKAPKLLIYAASSLQSGVPSRFSGSGSGTDFTLTISSLQPEDFATYYCQQSYSFRRYSFGQGTKLEIKR
notes: Fab on M13 phage
B4: SH34 (Fab, V domains shown)
VH: EVQLLESGGGVVQPGRSLRLSCAASGFSFSSYGMHWVRQAPGKGLEWVAVISYDGTNKYFADSVKGRFTISRDNSKKTLYLQMTSLRPEDTAVYFCANLRGEVTRRASVPLDIWGQGTMVTVSS
VL: AELTQSPSSLSASVGDRVTITCRASQSISSYLNWYQQKPGKAPKLLIYAASGLQSGVPSRFSGSGSGTDFTLTISSLQPEDFATYYCQQSYSTPPYTFGQGTKLEIKR
notes: Fab on M13 phage
B5: SH08 (Fab, V domains shown)
VH: EVQLLESGGGVVQPGRSLRLSCAVSGFTLTNYGMHWVRQAPGKGLEWVAHVWYDGSKTEYADSVKGRFAVSRDKSKNTLFLQMNSLTAEDTAIYYCARERREKVYILFYSWLDRWGQGTLVTVSS
VL: AELTQSPSSLAASVGDRVTITCRANQTIRTSLNWYQQRPGKAPNLLIYGASRLHSGVPSRFSGGISGADFTLTISSLQPEDFATYYCQQTYGYSRTFGQGTKVDIKR
notes: Fab on M13 phage; also called SH8
B6: SH30 (Fab, V domains shown)
VH: EVQLLESGGGVVQPGRSLRLSCAVSGFTLTNYGMHWVRQAPGKGLEWVAHVWYDGSKTEYADSVKGRFAVSRDKSKNTLFLQMNSLTAEDTAIYYCARERREKVYILFYSWLDRWGQGTLVTVSS
VL: AELTQSPSSLSASVGDRVTITCRASQSIRRSLNWYQQSPGKTPKLLIYAASSLQSGVPSRFSGSGSGTDFTLTISSLQPEDFATYYCQQSYSTLTFGGGTKVEIKR
notes: Fab on M13 phage
B7: SH16 (Fab, V domains shown)
VH: EVQLLESGGGVVQPGRSLRLSCAASGFTFSSYGMHWVRQAPGRGLEWVALIWYDGGNKEYADSVKGRFSISRDNSKNTLYLQVNSLRADDTAVYYCARDQRAAAGIFYYSRMDVWGQGTTVTVSS
VL: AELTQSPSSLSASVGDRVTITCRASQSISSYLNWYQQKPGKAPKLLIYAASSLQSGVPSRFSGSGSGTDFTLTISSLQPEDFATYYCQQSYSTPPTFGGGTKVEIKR
notes: Fab on M13 phage
B8: SH20 (Fab, V domains shown)
VH: VQLLEESGGGVVQPGRSLRLSCAASGFTFRSYAMHWVRQAPGKGLEWVAVISYDGSTIYYADSVKGRFTISRANSKNTLFLQMNSLRTEDTAVYYCTRGGFYYDSSGYYGLRHYFDYWGQGTLVTVSS
VL: AELTQSPFSLSASVGDRVTITCRASQSISRSLNWYQHKPGEAPKLLIYAASSLQRGVPPRFSGSGSGTDFTLTISSLQPEDFATYFCQQSVRIPYSFGQGTKLEIKR
notes: Fab on M13 phage
B9: SH32 (Fab, V domains shown)
VH: EVQLLESGGGVVQPGRSLRLSCEASKFTLYNYGMHWVRQAPGKGLEWVAFIWFDGSNKYYEDSVKGRFTVSRDNSKNTLYLQMNSLRAEDTAVYYCARELSKKVALSRYYYYMDVWGQGTTVTVSS
VL: AELTQEPSLTVSPGGTVTLTCASSTGAVTSRYFPNWFQQKPGQAPRALIYGSNNKHSWTPARFSGSLLGGKAALTLSGVQPEDEAEYYCLLFYAGAWAFGGGTKLTVL
notes: Fab on M13 phage
B10: SH36 (Fab, V domains shown)
VH: EVQLLESGGGVVQPGRSLRLSCEASKFTLYNYGMHWVRQAPGKGLEWVAFIWFDGSNKYYEDSVKGRFTVSRDNSKNTLYLQMNSLRAEDTAVYYCAREGSKKVALSRYYYYMDVWGQGTTVTVSS
VL: AELTQSPSSLSASVGDRVTITCRASQSISSYLNWYQQKPGKSPKLLIYAASSLQSGVPSRFSGSGSGTDFTLTISSLQPEDFATYYCQQSYSTPPAFGPGTKVDIKR
notes: Fab on M13 phage
B11: SH14 (Fab, V domains shown)
VH: EVQLLESGGGVVQPGRSLRLSCAASGFTFSTYGMHWVRQAPGKGLEWVAVIWFDGSNKEYADSVKGRFTISRDNSKNTLYLQMNSLRAEDTAVYYCAREEVVRGVILWSRKFDYWGQGTLVTVSS
VL: AELTQSPSSLSASVGDRVTITCRASQNIRRSLNWYQHKPGRAPRLLIYAASTLQSGVPSRFRGSGSGTDFTLTINSLQPADFATYYCQQSSNTPWTFGHGTKVEIKR
notes: Fab on M13 phage
B12: SH21 (Fab, V domains shown)
VH: EVQLLESGGGVVQPGRSLRLSCAASGFTFSTYGMHWVRQAPGKGLEWVAVIWFDGSNKEYADSVKGRFTVSRDNSKNTLYLQMNSLRAEDTAVYYCAREEVVRGVILWSRKFDYWGQGTLVTVSS
VL: AELTQSPSFLSASVGDRVTITCRASQGIRSYLAWYQQKPGKAPKLLIYAASTLQSGVPSRFSGSGSGTEFTLTIASLQPDDFATYYCQQLNNYPPFTFGPGTKVDIKR
notes: Fab on M13 phage
B13: SH25 (Fab, V domains shown)
VH: VQLLEESGGGVVQPGRSLRLACAASGFSFRSYGMHWVRQAPGRGLEWVAFTWFDGSNKYYVDSVKGRFTISRDNSKNTLYLEMNSLRVDDTAVYYCAREAPMLRGISRYYYAMDVWGPGTTVTVSS
VL: AELTQSPSSLSASVGDRVTITCRASQNIRRSLNWYQQKPGKAPKLLIYAASSLQSGVPSRFSGSGSGTDFTLTISSLQPEDFATYYCQQSSNTPWTFGQGTKVEIKR
notes: Fab on M13 phage
B14: SH12 (Fab, V domains shown)
VH: EVQLLESGGGVVQPGRSLRLSCAASGFTFSTYGMHWVRQAPGKGLEWVAVIWFDGSNKEYADSVKGRFTVSRDNSKNTLYLQMNSLRAEDTAVYYCAREEVVRGVILWSRKFDYWGQGTLVTVSS
VL: AELTQSPFSLSASVGDRVTITCRASHNIYRSLNWFQHKPGEAPKLLVYAASSLQRGVPTRFSGSGSGTDFTLTISSLQPEDSATYFCQQSVTFPYTFGQGTKLEIRR
notes: Fab on M13 phage
B15: SH04 (Fab, V domains shown)
VH: EVQLLESGGGVVQPGRSLRLSCAASGFTFSTYGMHWVRQAPGKGLEWVAVIWFDGSNKEYADSVKGRFTISRDNSKNTLYLQMNSLRAEDTAVYYCAREEVVRGVILWSRKFDYWGQGTLVTVSS
VL: AELTQSPSSLSASVGDRVTITCRASQNIRRSLNWYQQKPGKAPKLLIYAASSLQSGVPSRFSGSGSGTDFTLTISSLQPEDFATYYCQQSSNTPWTFGQGTKVEIKR
notes: Fab on M13 phage
B16: SH10 (Fab, V domains shown)
VH: VQLLEESGGGVVQPGRSLRLSCAASGFTFSRNGMHWVRQAPGKGLEWVAFIWFDGSNKYYADSVKGRFTISRDNSKNTLYLQMNSLRADDTAVYYCAREEALFRGLTRWSYGMDVWGQGTTVSVSS
VL: AELQDPVVSVALGQTVRITCQGDGLRSYYASWYQQKPGQAPKLVMYGRNNRPSGIPGRFSGSSSGQTAALTITGTQAEDEADYYCQSRATSGNPVVFGGGTKLTVL
notes: Fab on M13 phage
B17: SH28 (Fab, V domains shown)
VH: EVQLLESGGGGVQPGRSLRLSCAASGFTFNSYAMYWVRQPPGKGLEWVAAIWYDGSNKEYADFVKGRFTISRDNSKNTLSLQMNSLRDEDTAVYYCAREANLLRGWSRYYYGMDVWGQGTTVTVSS
VL: AELTQSPSSLSASVGDRVTITCRADQNIRRSLNWFQQKPGKAPKLLIYAASSLQSGVPSRFSGSGSGTDFTLTISSLQPEDFATYYCQQSSSTPWTFGRGTKVEIKR
notes: Fab on M13 phage
B18: SH50 (Fab, V domains shown)
VH: EVQLLESGGGGVQPGRSLRLSCAASGFTFNSYAMYWVRQPPGKGLEWVAAIWYDGSNKEYADFVKGRFTISRDNSKNTLSLQMNSLRDEDTAVYYCAREANLLRGWSRYYYGMDVWGQGTTVTVSS
VL: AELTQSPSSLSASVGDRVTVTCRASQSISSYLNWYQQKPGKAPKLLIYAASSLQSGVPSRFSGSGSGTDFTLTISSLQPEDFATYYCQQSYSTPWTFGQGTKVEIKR
notes: Fab on M13 phage

The test deals with T1, human Rh(D) antigen on Rh(D)-positive …. Briefly: agglutination, anti-M13. On the procedure: The binding of anti-Rh(D) Fab/phage or soluble Fab molecules to normal or partial Rh(D) antigens was assessed by indirect agglutination assays as described (Siegel et al., 1994, Blood 83:2334; Siegel et al., 1997, J. Immunol. Meth. 206: 73). […] Following a one-hour incubation at 37° C., the RBCs were washed 3 times with 2 ml of cold PBS to remove unbound antibody. The resulting RBC pellets were resuspended in 100 μl of a 10 μg/ml solution of sheep anti-M13 antibody (5 Prime-3 Prime, Boulder, Colo.) for Fab/phage experiments or goat anti-human κ or λ light chain antibody (Tago, Burlingame, Calif.) for $\gamma_1\kappa$ or $\gamma_1\lambda$ soluble Fab experiments, respectively. The RBC suspensions were transferred to the round-bottomed wells of a 96-well microplate and left undisturbed for 2 hours. Negative reactions show sharp ~2 millimeter diameter RBC spots whereas the RBCs in agglutinated wells form a thin carpet coating the entire floor of the well (Siegel et al., 1997, J. Immunol. Meth. 206:73). Agglutination titers for recombinant antibodies were determined by performing serial 2-fold dilutions in 1% BSA/PBS.
Fifty-six randomly chosen colonies were selected, and monoclonal Fab/phage preparations were separately produced from each of these individual colonies, using the methods described herein in Example 1. Rh(D) specificity was determined by indirect agglutination using anti-M13 antibody, as described herein in Examples 1 and 2.
As to B1, the binding result is reported as “binds”.

Regarding B2, the binding result was “binds”.

With B3, the binding result is reported as “binds”.

Take B4: the binding result is on record as “binds”.

Take B5: the binding result is reported as “binds”.

As to B6, the binding result is “binds”.

As to B7, the binding result is on record as “binds”.

For B8, the binding result is “binds”.

On to B9, for which the binding result is “binds”.

Turning to B10, the binding result is reported as “binds”.

Turning to B11, the binding result is “binds”.

As to B12, the binding result is listed as “binds”.

As for B13, the binding result was “binds”.

With B14, the binding result is “binds”.

For B15, the binding result is reported as “binds”.

In the case of B16, the binding result is reported as “binds”.

B17: the binding result was “binds”.

As to B18, the binding result was “binds”.
